The data set deals with the molecule itself. Put plainly: SEC. On the technique in general: SEC sorts molecules by how far they enter the pores of the column.

As a reminder, the stoichiometry N is a count of units in the complex or per binding partner.

B1: Full-length His6-tagged NrpR from Methanococcus maripaludis (MmNrpR) (natural protein, UniProt Q6LZL7 1-536, looked up)
chain: MDSNIDVEILSILSEASAPVGAKIIADSLKDRGYDIGERAVRYHLKVLDENSLTKKLGYSGREITEKGIEELEKANISFRIGSVFSQVIEKLYLSDFPSKVLINTAKFEGDYKTIKEMVLRSFEAGYSVGDYLNIKKKGNTVSVETLCSITFDNFLLKNGIIPTPEYGGIVKFEDYEPVNFEGVIDFKSSSIDPLVAFIMQGKTDVIGVIENGEGLVPANFRVIPKSSEKQFETILKKDMLNSVLAYGTENVLGMNLNPEQIGVVLVGGLTPLCVPHESGYTADISAATQLKDISSMEKKTKGFLEAKKKKGKFKVTPVLSKMLSKMQTINYDIEDKKGNVVVNTAKIPIEYKEEAINALKDSYENKLAISDRLKVECDDKFLNAYTICSLTVDGVFLKNKIPVIPYYGGILEVKADKKRFIEAIDYEGTSLDPHEVFFNKADGKNYILAGIRKVPMSASEKLIELNEKLGWNSIIEIGRPNNDICGVRVEKCMFGITTIGGTNPFANIRKNNIPVEMKTLHKSIDYSELTHYDDI
Regarding B1, the “stoichiometry N” value is 2.
